In PMC12431651:

Assays:
Assay in all cases: ITC; MED25 ACID (200 or 250 µM, syringe) titrated into NS1 (20 µM, cell); 20 mM Tris pH 8.0, 200 mM NaCl, 1 mM TCEP, 25°C; one set of sites model
[1] = biological target: RSV NS1, full-length wild type (aa 1–139) (human respiratory syncytial virus subgroup A, Long strain)
[2] = biological target: NS1 K112A (human respiratory syncytial virus subgroup A, Long strain)
[3] = biological target: NS1 M122A (human respiratory syncytial virus subgroup A, Long strain)
[4] = biological target: NS1 I54A (human respiratory syncytial virus subgroup A, Long strain)
[5] = biological target: NS1 Y125A (human respiratory syncytial virus subgroup A, Long strain)
[6] = biological target: NS1 E110A (human respiratory syncytial virus subgroup A, Long strain)
[7] = biological target: NS1 L133A (human respiratory syncytial virus subgroup A, Long strain)
[8] = biological target: NS1 F56A (human respiratory syncytial virus subgroup A, Long strain)

B1: MED25 ACID (aa 389–543) (domain or fragment)
chain: LGGQQSVSNKLLAWSGVLEWQEKPKPASVDANTKLTRSLPCQVYVNHGENLKTEQWPQKLIMQLIPQQLLTTLGPLFRNSRMVQFHFTNKDLESLKGLYRIMGNGFAGCVHFPHTAPCEVRVLMLLYSSKKKIFMGLIPYDQSGFVNGIRQVITN
- Kd [1]: 44 nM
- dH [1]: -10.1 kcal/mol
- stoichiometry N [1]: 0.73
- Kd [2]: 79 nM
- dH [2]: -10.7 kcal/mol
- stoichiometry N [2]: 0.66
- Kd [3]: 606 nM
- dH [3]: -10.4 kcal/mol
- stoichiometry N [3]: 0.71
- Kd [4]: 45 nM
- dH [4]: -10.7 kcal/mol
- stoichiometry N [4]: 0.79
- Kd [5]: 80 nM
- dH [5]: -11.9 kcal/mol
- stoichiometry N [5]: 0.53
- Kd [6]: 1540 nM
- dH [6]: -7.7 kcal/mol
- stoichiometry N [6]: 0.86
- Kd [7]: 2230 nM
- dH [7]: -7.6 kcal/mol
- stoichiometry N [7]: 0.44
- Kd [8]: 198 nM
- dH [8]: -8.3 kcal/mol
- stoichiometry N [8]: 0.8
